# Reference: publication PMC9598941
# Legend:
# [1] = target: T1, CcpA (catabolite control protein A) (Staphylococcus aureus XN108 (clinical isolate)?) (UniProt P99175); assay: EMSA
# T1 sequence: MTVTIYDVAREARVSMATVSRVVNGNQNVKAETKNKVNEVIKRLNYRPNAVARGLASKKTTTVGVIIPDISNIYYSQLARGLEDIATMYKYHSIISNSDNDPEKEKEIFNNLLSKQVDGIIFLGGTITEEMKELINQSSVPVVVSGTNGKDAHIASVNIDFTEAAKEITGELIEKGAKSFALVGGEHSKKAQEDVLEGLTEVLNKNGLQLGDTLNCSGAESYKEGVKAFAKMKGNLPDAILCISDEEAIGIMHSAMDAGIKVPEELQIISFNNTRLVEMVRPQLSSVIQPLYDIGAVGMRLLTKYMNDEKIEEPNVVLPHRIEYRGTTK
# [2] = target: T1, CcpA (catabolite control protein A) (Staphylococcus aureus XN108 (clinical isolate)?); assay: competition
sequence,measurement,setting,value
GGCGCTTCCTCCAAATATAATATATTTGTTTTTATTTATCTCTTTTTATAGCTAACACCCTTATTTAAGATGATAAATATCAACAACTTCATTTTATATTGAGAAAATATTAAAAATCAATAAAATATTAAAAGAAACTAAACTTACATTAAAAAATAATTAACAAATATTTAACATTTTAACCTAAGAA (double strand) [Psak],binding,[1],binds
same,binding,[2],binds
